# Measurements taken from the DeepSol protein solubility set.
# Experiment: soluble on expression in E. coli; label from the status in PepcDB or PDB records
row,Sequence,soluble on expression in E. coli
1,MPPRRDLKKILIIGSGPITIGQAAEFDYSGTQAVKALRGAGYRVVLVNSNPATIMTDPELAERTYIEPLDLEHLEGILAREAPDALLPTLGGQTGLNLAMALHEEGILQKYGVELIGAKAEAIRKGEDREAFQEAMQRIGLEVPRGQLVGSVEEGLHFAREVGFPVVVRPSFTLGGTGGGIAHDEAELVEVLSRGLTLSPVHTALVEESVLGWKEFELEVMRDHADTVVIITSIENVDPMGVHTGDSITVAPAQTLSDVEYQRMRDAAKAIIREIGVETGGSNIQFAVDPKTGRQVVIEMNPRVSRSSALASKATGFPIAKIAALLAVGYRLDELPNDITRKTPASFEPTIDYVVVKIPRFAFEKFRPLRNTLGELKDELTTQMKSVGEVMAIGRTFKEALMKALRGLERDVRALAGVRTEELEKKLYPNPDRVYAVMELLRRGMPVEELYQATRIDPWFLHQMKEVVEAEEWLKTHPPKDREDWRFYKGLGLTDRRIGELVGKGEKEVRAERKALGVVPVYKTVDTCAAEFEAYTPYHYSTYELEDEVWPSQKPKVVILGSGPIRIGQGVEFDYATVHAVWALKEAGYETIMVNSNPETVSTDYDTADRLYFEPLTLEDVLNIVEHEKPIGVIATLGGQTPLKLAKGLEEAGVRLLGTPFSAIHQAEDREAFHALCQRLGIPQPEGRVAQSPEEALRLAPEVGFPLLVRPSYVLGGRAMQVVRDEGELKRYLEEVYAPLEERPSILLDRFLEGAVELDVDALSDGQEVMVAGIMEHVERAGVHSGDSATLLPPVHVPEEALKKVRDYTRRLALALGVRGLLNVQYAVVGEEVYVLEANPRASRTVPFVSKAIGVPLAKLAALIAVGKTLKELGVRDLDPVPPYYAAKEVVIPWIKFPGVIPELGPEMRSTGESMGIDQDPYLAYYKAELGAGQRLPLSGRVRFIGEGLEDLKALYQEAGFALTEGEDYDLLISLVPDPELRRAVERGLPFITTREGAWWSLKAILRARESGLRVQSLQDWHQKAPRG,soluble
2,MQLVVARIGRAHGIKGEVTVEVRTDEPELRLGPGAVLATDPASTGPLTIESGRVHSGRLLLRFAGVHDRTGAEALRNTLLIADVDPDERPEDEDEYYDHQLIDLDVVTEDGTEVGRITEISHLPTQDLFVVERPDGSEVYVPFVSEIVTGIDLDAQRAVIDPPPGLIDDRAEIASARDAGAEDAGDEALEHHHHHH,soluble
3,MKKLITALSLVLVSYASMAAQECSLDFVKSAPNSRYLYSDLGVVTDLKTGLTWMRCPVGMTWDMAQKACSGEAQKVTWQNALLTAEQIRNASGNHVLHNFADKKQWRLPNIKELVTLTERACFHPSMNGTAFESAYSLETGDLGSYIWSNTPGTDARQIMTFESVNGDVIGYSPEANQFSVLLVTDEDLEHHHHHH,not soluble
4,MGSDKIHHHHHHMRRLLTGCLLSSARPLKSRLPLLMSSSLPSSAGKKPKQATLARFFTSMKNKPTEGTPSPKKSSKHMLEDRMDNVSGEEEYATKKLKQTAVTHTVAAPSSMGSNFSSIPSSAPSSGVADSPQQSQRLVGEVEDALSSNNNDHYSSNIPYSEVCEVFNKIEAISSRLEIIRICSDFFIKIMKQSSKNLIPTTYLFINRLGPDYEAGLELGLGENLLMKTISETCGKSMSQIKLKYKDIGDLGEIAMGARNVQPTMFKPKPLTVGEVFKNLRAIAKTQGKDSQLKKMKLIKRMLTACKGIEAKFLIRSLESKLRIGLAEKTVLISLSKALLLHDENREDSPDKDVPMDVLESAQQKIRDAFCQVPNYEIVINSCLEHGIMNLDKYCTLRPGIPLKPMLAKPTKAINEVLDRFQGETFTSEYKYDGERAQVHLLNDGTMRIYSRNGENMTERYPEINITDFIQDLDTTKNLILDCEAVAWDKDQGKILPFQVLSTRKRKDVELNDVKVKVCLFAFDILCYNDERLINKSLKERREYLTKVTKVVPGEFQYATQITTNNLDELQKFLDESVNHSCEGLMVKMLEGPESHYEPSKRSRNWLKLKKDYLEGVGDSLDLCVLGAYYGRGKRTGTYGGFLLGCYNQDTGEFETCCKIGTGFSDEMLQLLHDRLTPTIIDGPKATFVFDSSAEPDVWFEPTTLFEVLTADLSLSPIYKAGSATFDKGVSLRFPRFLRIREDKGVEDATSSDQIVELYENQSHMQN,not soluble
